Measurements from paper PMC12830989, “Subcellular glycan-mannose receptor binding kinetics correlate with myeloid cell function” (Nature Communications, 2025).
sCy5 = sulfo-Cy5

Legend:
MR^−/− BMDC = assay: Glyco-PAINT-APP single-molecule glycan binding on live MR-/- BMDC; design: species or system mouse; details: Suppl. Fig 9, glycan SLP, median
Procedure: (§1) Single molecule imaging was performed on a Nikon Ti2 N-STORM system equipped with TIRF module, Z piezo element, perfect focus system for axial drift correction and an OkoLab incubator with temperature and CO2 controller (37 °C and 5% CO2) for live-cell imaging. Recordings were acquired using the 647 nm excitation laser (160 mW, 1.9 kW/cm^2). Upon laser excitation, fluorescence was collected by a 100x 1.49 NA oil-immersion objective, passed through a quad-band dichroic mirror (97335 Nikon), and detected by a Hamamatsu ORCA Flash 4.0 CMOS camera with 160 nm pixel size. The signal was collected using the following settings: 512 × 512 pixel region, no binning, pixel depth 16-bit, exposure time 50 ms, live-cell observation and 2D-STORM (lens out), zoom 1x, lens x0.4, and for live-cell observation at 37 °C, the correction collar was set to position 8160.
(§2) 5 x 10^4 CHO-MR or 1 x 10^5 WT, MR^−/− BMDC or BMDM were seeded in 8-well glass-bottomed microscopy slides (Ibidi, 80827) in complete medium. After equilibration in the microscope incubator, fluorescent glycan was added at 5 nM for CHO-MR and 10 nM for BMDC or BMDM experiments. Then, cells were brought into focus using brightfield illumination and 2000 frames (at 50 ms intervals) were recorded within a single field-of-view at 40–60% of maximum 647 nm laser power using TIRF illumination. For indicated experiments, Cytochalasin D (Focus Biomolecules) was added to a final concentration of 10 µM for 30 min prior to acquisition.
(§3) Processing of recordings using Glyco-PAINT-APP was performed as described in a step-by-step procedure in the Supplementary Software Manual in the Supplementary Information and accompanying Supplementary Videos 1 and 2. For the TrackMate processing, a batch file (Experiment Info.csv) containing the experiment metadata and tracking parameters was created. Threshold values were set to 5, 10 or 15 such that no more than 1.500.000 spots were detected. Recordings were then processed in TrackMate using the ‘Run TrackMate Batch’ plugin provided by the Glyco-PAINT-APP. Through this plugin, spot detection and tracking by TrackMate[70] was performed as indicated in the batch file using the Simple LAP tracker algorithm with a maximum frame gap of 3, a max linking distance of 0.6 μm and a gap closing max distance of 1.2 μm. Tracks with only two spots were discarded. For the parameter sensitivity analysis, each tracking or spot detection was varied as indicated, whilst the others were kept at aforementioned values (Basis scenario).
(§4) With the Glyco-PAINT-APP utility ‘Generate Squares’, a grid of squares was overlaid, and kinetic properties for each square were calculated. Default parameters for grid processing are (deviations are mentioned in figure captions): Nr of Squares in row 20, Minimum Tracks to Calculate Tau 20, Min allowable R Squared 0.1, Min Required Density Ratio 2, Maximum Allowable Variability 10 and Neighbour Mode Free.
(§5) For every recording, a background track count was calculated by averaging the track count of the 40 (10% of the total number of squares) least dense squares. Only squares for which the track count exceeded the Min Required Density Ratio of 2 were considered (and the remaining ignored as background). For each square, the variability was calculated and only squares for which the variability was less than the Maximum Allowable Variability of 10 were considered. For squares meeting both the Minimum Required Density Ratio and Maximum Allowable Variability criteria, and containing at least the Minimum Tracks to Calculate Tau kinetic parameters, including kon, koff and MSD were calculated as in Riera et al.[10], or copied from the TrackMate Tracks table output (for velocity, displacement, and track duration).

[1] = biological target: T1, mannose receptor (MR) on CHO-MR cells (Mus musculus, UniProt Q61830); assay: Glyco-PAINT-APP single-molecule glycan binding on CHO-MR cells; details: Suppl. Fig 9, glycan SLP, median
T1 construct: expressed in transfected cells; host or cells: CHO (CHO-MR overexpression line, gift of Luisa Martinez-Pomares)
T1 sequence (Q61830 20-1456): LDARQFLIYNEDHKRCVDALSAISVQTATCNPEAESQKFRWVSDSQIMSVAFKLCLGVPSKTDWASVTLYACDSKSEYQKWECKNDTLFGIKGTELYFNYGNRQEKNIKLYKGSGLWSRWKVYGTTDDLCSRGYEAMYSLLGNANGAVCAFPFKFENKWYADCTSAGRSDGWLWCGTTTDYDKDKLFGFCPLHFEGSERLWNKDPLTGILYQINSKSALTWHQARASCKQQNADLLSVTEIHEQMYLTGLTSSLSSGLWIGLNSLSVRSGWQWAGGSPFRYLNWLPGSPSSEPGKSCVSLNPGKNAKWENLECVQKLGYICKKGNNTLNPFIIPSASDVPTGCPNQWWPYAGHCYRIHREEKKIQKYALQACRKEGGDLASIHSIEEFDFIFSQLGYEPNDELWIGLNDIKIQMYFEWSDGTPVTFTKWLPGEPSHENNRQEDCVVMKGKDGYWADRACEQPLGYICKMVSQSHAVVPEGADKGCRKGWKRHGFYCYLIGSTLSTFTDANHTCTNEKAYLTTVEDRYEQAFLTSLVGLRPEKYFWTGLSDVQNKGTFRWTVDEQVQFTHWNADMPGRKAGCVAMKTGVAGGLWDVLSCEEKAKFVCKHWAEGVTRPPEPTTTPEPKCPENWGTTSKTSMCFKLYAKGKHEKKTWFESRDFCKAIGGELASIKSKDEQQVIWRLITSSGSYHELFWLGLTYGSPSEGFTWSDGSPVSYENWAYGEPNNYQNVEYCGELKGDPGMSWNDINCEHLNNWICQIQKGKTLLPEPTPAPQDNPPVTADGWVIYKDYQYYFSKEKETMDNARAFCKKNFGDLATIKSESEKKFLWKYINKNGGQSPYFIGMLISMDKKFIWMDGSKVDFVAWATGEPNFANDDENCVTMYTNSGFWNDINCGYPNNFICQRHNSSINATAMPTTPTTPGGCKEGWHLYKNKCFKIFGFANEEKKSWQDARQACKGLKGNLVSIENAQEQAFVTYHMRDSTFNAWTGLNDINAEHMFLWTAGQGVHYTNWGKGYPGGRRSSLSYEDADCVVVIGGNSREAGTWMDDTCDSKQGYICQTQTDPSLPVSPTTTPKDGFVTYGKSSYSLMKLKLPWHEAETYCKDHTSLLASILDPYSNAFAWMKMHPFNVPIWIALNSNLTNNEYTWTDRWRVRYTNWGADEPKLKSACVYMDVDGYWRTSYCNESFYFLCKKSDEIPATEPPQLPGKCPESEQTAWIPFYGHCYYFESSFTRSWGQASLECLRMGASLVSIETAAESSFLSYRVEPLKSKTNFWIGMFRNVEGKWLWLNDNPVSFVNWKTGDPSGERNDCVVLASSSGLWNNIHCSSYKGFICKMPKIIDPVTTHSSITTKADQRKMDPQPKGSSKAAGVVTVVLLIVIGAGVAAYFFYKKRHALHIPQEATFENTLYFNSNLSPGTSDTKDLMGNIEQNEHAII
Procedure: as §1, §2, §3, §4, §5

Row | Substance | koff−1 (MR^−/− BMDC) | kon (MR^−/− BMDC) | koff−1 ([1]; CHO-MR + CytD) | kon ([1]; CHO-MR + CytD) | koff−1 ([1]; CHO-MR) | kon ([1]; CHO-MR)
1 | Ac-Lys(Man)-Gly-Lys(Man)-TEG-Asp-Glu-Val-Ser-Gly-Leu-Glu-Gln-Leu-Glu-Ser-Ile-Ile-Asn-Phe-Glu-Lys-Leu-Ala-Ala-Ala-Ala-Ala-Lys(sCy5)-NH2 ({Ac-K(Man)-Gly-K(Man)-TEG}-DEVSGLEQLESIINFEKLAAAAAK(sCy5)-NH2) [2 Mono(2), bivalent monomannosylated OVA SLP with sulfo-Cy5] | 151 ms | 2 evts μm−2 sec−1 | 85 ms | 8.2 evts μm−2 sec−1 | 91 ms | 6.2 evts μm−2 sec−1
2 | Ac-Lys(Man)-Lys(Man)-Lys(Man)-Lys(Man)-Lys(Man)-Lys(Man)-TEG-Asp-Glu-Val-Ser-Gly-Leu-Glu-Gln-Leu-Glu-Ser-Ile-Ile-Asn-Phe-Glu-Lys-Leu-Ala-Ala-Ala-Ala-Ala-Lys(sCy5)-NH2 ({Ac-K(Man)-K(Man)-K(Man)-K(Man)-K(Man)-K(Man)-TEG}-DEVSGLEQLESIINFEKLAAAAAK(sCy5)-NH2) [6 Mono(3), hexavalent monomannosylated OVA SLP with sulfo-Cy5] | 180 ms | 6.3 evts μm−2 sec−1 | 115 ms | 8.9 evts μm−2 sec−1 | 117 ms | 5.2 evts μm−2 sec−1
3 | Ac-Lys(Man)-TEG-Asp-Glu-Val-Ser-Gly-Leu-Glu-Gln-Leu-Glu-Ser-Ile-Ile-Asn-Phe-Glu-Lys-Leu-Ala-Ala-Ala-Ala-Ala-Lys(sCy5)-NH2 ({Ac-K(Man)-TEG}-DEVSGLEQLESIINFEKLAAAAAK(sCy5)-NH2) [1 Mono(1), monovalent monomannosylated OVA SLP with sulfo-Cy5] | 182 ms | 6.2 evts μm−2 sec−1 | 63 ms | 3.9 evts μm−2 sec−1 | 68 ms | 3.8 evts μm−2 sec−1
4 | Ac-Lys(triMan)-Gly-Lys(triMan)-TEG-Asp-Glu-Val-Ser-Gly-Leu-Glu-Gln-Leu-Glu-Ser-Ile-Ile-Asn-Phe-Glu-Lys-Leu-Ala-Ala-Ala-Ala-Ala-Lys(sCy5)-NH2 (DEVSGLEQLESIINFEKLAAAAAK; two Lys(triMan), TEG, sulfo-Cy5, C-amide; printed: Asp-Glu-Val-Ser-Gly-Leu-Glu-Gln-Leu-Glu-Ser-Ile-Ile-Asn-Phe-Glu-Lys-Leu-Ala-Ala-Ala-Ala-Ala-Lys) [2 Tri(5), bivalent trimannosylated OVA SLP with sulfo-Cy5] | 141 ms | 4.6 evts μm−2 sec−1 | 108 ms | 4.6 evts μm−2 sec−1 | 117 ms | 5 evts μm−2 sec−1
5 | Ac-Lys(triMan)-Lys(triMan)-Lys(triMan)-Lys(triMan)-Lys(triMan)-Lys(triMan)-TEG-Asp-Glu-Val-Ser-Gly-Leu-Glu-Gln-Leu-Glu-Ser-Ile-Ile-Asn-Phe-Glu-Lys-Leu-Ala-Ala-Ala-Ala-Ala-Lys(sCy5)-NH2 (DEVSGLEQLESIINFEKLAAAAAK; six Lys(triMan), TEG, sulfo-Cy5, C-amide; printed: Asp-Glu-Val-Ser-Gly-Leu-Glu-Gln-Leu-Glu-Ser-Ile-Ile-Asn-Phe-Glu-Lys-Leu-Ala-Ala-Ala-Ala-Ala-Lys) [6 Tri(6), hexavalent trimannosylated OVA SLP with sulfo-Cy5] | 115 ms | 1.1 evts μm−2 sec−1 | 85 ms | 4.8 evts μm−2 sec−1 | 101 ms | 6.2 evts μm−2 sec−1
6 | Ac-Lys(triMan)-TEG-Asp-Glu-Val-Ser-Gly-Leu-Glu-Gln-Leu-Glu-Ser-Ile-Ile-Asn-Phe-Glu-Lys-Leu-Ala-Ala-Ala-Ala-Ala-Lys(sCy5)-NH2 (DEVSGLEQLESIINFEKLAAAAAK; Ac-Lys(triMan)-TEG, sulfo-Cy5, C-amide; printed: Asp-Glu-Val-Ser-Gly-Leu-Glu-Gln-Leu-Glu-Ser-Ile-Ile-Asn-Phe-Glu-Lys-Leu-Ala-Ala-Ala-Ala-Ala-Lys) [1 Tri(4), monovalent trimannosylated OVA SLP with sulfo-Cy5] | 160 ms | 6 evts μm−2 sec−1 | 144 ms | 7.1 evts μm−2 sec−1 | 79 ms | 2.8 evts μm−2 sec−1
